B1: Promoter of RAFL06-16-J10: environmental stress responsive promoter DNA, SEQ ID NO: 5, upstream of At2g06050 (OPR3 gene) (nucleic acid, listed as Arabidopsis thaliana)
DNA: CCTGGGACTTGGGCTGAGAATAATGAAGTGGCTGGGAAATGATTAGTTAAGGATGGCTTGATGAATTCTCAATATTCTGTTGAGGGAACAAAATATACTAGGAAGGATGCAAGTCCAGTTTGGTCTAAACCATTGTACGAACCAAAAACAATCAATAAAGTAACTCAGGGCTCACAAATGGTCGATAATATTTCTAAAGTTTCAGTTCTAGAGGATGAGCAAAAGGATTTGATGATGGGAGATGTACTAGAGGTACAAGACAAGAGTCTCACTGAAGGGTTGAATTTCAGATATTTTAAATCACGTTTGGAGTAACAAAAAACAAATGTGAGAAGGAGCTCAATTAGCTCCAACTGAATCTAGTGTTATTAGGGATACTTTGGAAACTCCAATTCAATCTTTAAGATGTAGGATTGATGAATTCATGGAAATCGGCAGATCCATCTATGAATTTAGTATGGTGGTGTTTCCTAGGAATTGACAATACAATTTTACTTGGTGCAAAGTGTCTTCGGAGGTGTCCCTTTCTTTTTCACTCGGAATTGGAAGTTTTAATATTGGCAATAAAAAATATCCTTTCAAGAAGGATAAAGTGTCAGGCATTTGAAACAGATAATTATTCAGAGTAAGTTTTGATGGTACAGTCCCCTGAAGAATGACTCGCTTTCTCTAATTTTTTAGAAGATCTTGAATTGCTATGTGTCTCCTTTTCTTGCTTTCTTCTATTTCATGTTTATGTAATACTAAGGCAAACTATTTAGCACAATATTCTAAACTTTTATTTTCTGAAGTTATTTTTTAAACCCTTTCCCTCCTAATTGGACAACCAATCATGGAATTAGTTTTTACGTAATGTTTTAAACTCACTATTTCACCTTTATTCTGACCTGTTAATGGAAGACAACTATGACTTTATACATTGAAATGTTGTCAACCTGTTATATATTAATGTTAACATAGCTAATGACCTATCAATGTACGTAAAGCGAATGTCAATCATATTCGTATCCGTTAATTTCATTTAGGAAATCAGGCTCATTGCCAATCCACTAAGAAACATCTCTGATAGATCCAAATAATAAAAATAATATAATATGAAGCAAAATAGAACGAAATATCTCACGCGGACCAAACTTTGAACTTTATTATAAAACAAATCAGCACGTGAAAGTAATGGTCGGTTCGGTCCAAGATGCCAAGAACTCCTCCGGTCCATCCATCAACCTAACCTTTTTTGGATATAAAATTTAGCAAATTCCATTTCCACGACCACACAACAACAACACATCCACTCGAATTTTCTATTTCCGAATAACAAAACCGGTAAACTCATCACAAACTTAAGTTACTTTGTAGTTTGTGTTTTGTCCTTTTATGTAATGAAGAAGATCCAACTAACTACTACTCAATATTTTTGTATTGACCGTTGATTTCTCAGATCTGACTTTTACTTCTCCTTCTTCCAGATCGGCGGAGAC
B2: Promoter of RAFL06-07-B19: environmental stress responsive promoter DNA, SEQ ID NO: 4, upstream of At3g11410 (AHG3 gene) (nucleic acid, listed as Arabidopsis thaliana)
DNA: CCCGAACTTAACCCAAATGCCCACCTTTAATTATTCAAAACCAAAAAAGAAGTGTTTGATGCTGAGGTTTGAACTCATCAGATACACGTAACTATTTTCCAATTTATTTTCGTTTATGTGCATTTCAGAATTTCAAGCATAAATATACTCTTATTGTTTAAACATTTCAAATTGCATGTGTGAAATAATATCAGAGTTAGAATATATGTTAATCTTCTCTTCTCCTAGATTCAGTTAGATACGTTTCTATCTTCTTTTAGGCAACATCTCTTGTACAAATAGTCTCTTTGGCAATTCAATACAATCAACCTTTTACGATATATATATTTGTTATTTCTTGTACAAATAGGATCAAAATTGTTATTTCTGAAGCAAATTTTCTTTAGTTTGGATGTCAATTATATCCTCGATTAATATGTAATCACGGAACGGATTCACGATGCGTTATTTTAGAAGCAAATTTATACTTGATAGTACGTTCAGAGGCATCGCTTTTGTACAAATTGAAGCGGGTTTGTTCAATATTTAAAATAACACAGGAAACATTCAAATGTATTATTGATGTTGCTTAGGTTTGTGAAATGATATGAACCATATCGTATATATTACTAGATTTTTCTTATATGTTTTAAGGGTAGTGGGGCTGACCTATCATTCTGTTTGGCATTACCAATCAGACTATCAGAGTATTCACCATTCAGGATTCCATAACTAGAAAAAGAAGGGGTTTACATTTTCTCATACTGTATAATTTTCTACTATCAGAGATTTTATCGATTACATTAATCTCATAGTGATTATTCTGATTTATAAAAAAGTTGACAAAATAATTAAAACCAGTATTTTATAACAAGATTGTCTCTCTCCCATGGCCATTATTTTGACCTCTGACTTATTTAAATCTTAATTAACAGCATAATACTGTATTAAGCGTATTTAAATGAAACAAAATAAAAGAAAAAAAGAACAAAACGAAAGAGTGGACCACATGCGTGTCAAGAAAGGCCGGTCGTTACCGTTAAGGTGTGTCGAACTGTGATTGGGCCACGTTAACGGCGTATCCAAAAGAAAGAAAGGGCACGTGTATAGATCTAGGAAAAAAGAAAGAATGGACGGTTTAGATTGTATCTAGGTACCAGGAAATGGAACGTCACACCAAACGGTACGTGTCGGATCCTGCCCGTTGATGCTGACGGTCAGCAACTTCCCCTTATTCATGCCCCCCTGCCCGTTAATTACGTGTAACCCTTCCATGCGAAAATCAAACCCTTTTTTTTTTTTGCGTTCTTCTTCAACTTTTCTTTTTAAATCAAACCTTTTCTTTTTAAAATCACATTGCATTTCCTAACGCTCAACAAAATCTCTCTCTACTAATATCTCTCTCTCTCTCTCTCTATTGTTGAAGAAGACTCATAATCGGAGATTGTTTGTTTTTGGTTTGCTCTGTAAATTGGAGAAGTTTTGTTAGAGATCAA

Legend:
[1] = tested on: Arabidopsis thaliana (columbia ecotype) plant body; assay: full-length cDNA microarray analysis of gene expression levels after environmental stress application; details: in vivo
Protocol: In this example, the gene expression levels at the time of application of various types of environmental stresses were analyzed using microarrays. Specifically, the microarrays described in Seki et al., “Monitoring the expression profiles of 7000 Arabidopsis genes under drought, cold, and high-salinity stresses using a full-length cDNA microarray,” Plant J. 31: 279-292, 2002, were used, and analysis was carried out in accordance with the method similar to the method described therein. Various types of environmental stresses were applied to a plant body under the following conditions. Specifically, low-temperature stress application was carried out by introducing a plate containing a plant body into a low-temperature chamber (4° C.). Dehydration stress application was carried out by capturing the plant body with forceps while refraining from damaging the plant body, roughly removing moisture from the plant body on a Kim Towel, placing the plant body on another plate, placing the plate in a clean bench while leaving the lid open, letting it stand for 2 hours, and then closing the lid. Salt stress application was carried out by dispensing a mixture of MS medium (containing 1% sucrose, 0.1% agar, and 1 mM luciferin) with 250 mM NaCl to the roots of the plant bodies (200 μl per plant body) using a Pipetman. ABA stress application was carried out by dispensing a mixture of MS medium (containing 1% sucrose, 0.1% agar, and 1 mM luciferin) with 100 μM ABA to the roots of the plant bodies (200 μl per plant body) using a Pipetman. As a plant body to which environmental stress is to be applied, Arabidopsis thaliana (columbia ecotype), which had been cultivated on a germination medium containing Murashige and Skoog Salt, 3% sucrose, and […] for 3 weeks, was used. Cultivation conditions were determined so as to maintain the temperature in the chamber at 22° C. with a 16-hour light period and an 8-hour dark period. Total RNA was extracted from plant bodies after environmental stress application or from plant bodies to which no environmental stress had been applied using the TRIZOL Reagent (Life Technologies), and mRNA was extracted using the mRNA isolation kit (Militenyi Biotec Auburn). In accordance with the method described in the above article, mRNA samples were reversely transcribed in the presence of Cy3 dUTP or Cy5 dUTP (Amersham Pharmacia). Microarray analysis was carried out using cDNAs obtained via reverse transcription. Data obtained via microarray analysis were analyzed using the Quantarray Version 2.0 (GSI Lumonics).

[2] = tested on: transgenic Arabidopsis thaliana plant body (luciferase reporter gene); assay: luciferase assay of promoter::LUC transgenic plants after environmental stress application; type: in vivo; details: for Tissue allowing specific induction: summary over stress types
Protocol: Specifically, promoter regions were isolated from these genes, transgenic plants in which luciferase reporter genes were to be expressed under the control of such promoters were prepared, and tissue specificity of the promoters was inspected via luciferase assay.
In this example, DNA fragments containing promoter regions of the genes identified in Example 1 were recovered via PCR.
The nucleotide sequences of the amplified DNA fragments were determined in accordance with a conventional technique to confirm that mutagenesis, such as substitution or deletion, was not introduced thereinto. After the absence of mutagenesis was confirmed, the recovered DNA fragments were introduced into the vector for promoter analysis (i.e., a vector prepared by introducing the Gateway recombinant sequence (tradename: Gateway Vector Conversion System, Invitrogen) and the luciferase reporter gene into the pGreen vector (Plant Molecular Biology 42: 819-832, 2000)) using the Gateway recombination system to construct a recombinant vector.
The recombinant vector prepared in (1) above was introduced into a plant via Agrobacterium infection. When a gene is introduced via Agrobacterium infection, a process of infecting a plant with Agrobacterium containing a plasmid comprising the target gene construct is necessary. This process was carried out via vacuum infiltration. Specifically, a plant body of Arabidopsis thaliana that had been grown in soil comprising vermiculite and an equivalent amount of pearlite was soaked in a culture solution of Agrobacterium containing the recombinant vector prepared in (1). The resultant was placed in a desiccator, suctioned with a vacuum pump to 65 to 70 mmHg, and then allowed to stand at room temperature for 5 to 10 minutes. The pot was transferred onto a tray, covered with a wrap, and kept moistened. The wrap was removed on the following day, the plant was allowed to grow in that state, and seeds were then harvested.
Subsequently, seeds were sown on MS agar medium to which antibiotic hygromycin has been added in order to select an individual having the recombinant vector prepared in (1). Arabidopsis thaliana that had been grown in this medium was transferred to a pot and allowed to grow therein. Thus, seeds of transgenic plants to which the recombinant vector prepared in (1) has been introduced were obtained.
The seeds of the transgenic plant lineage prepared in (2) were sowed on MS agar medium. The plant body 10 days after sowing was used for luciferase assay.
At the outset, 1 mM luciferin (containing 0.01% Triton-X) was sprayed over the entire plant body 5 times. After the plant body was allowed to stand in the dark for 5 minutes, luciferase luminescence was assayed using ARGUS (assay after treatment for 0 hours). Subsequently, various types of environmental stresses were applied (see below). Low-temperature stress application was carried out by introducing a plate containing a plant body into a low-temperature chamber (4° C.). Dehydration stress application was carried out by capturing the plant body with forceps while refraining from damaging the plant body, roughly removing moisture from the plant body on a Kim Towel, placing the plant body on another plate, placing the plate in a clean bench while leaving the lid open, letting it stand for 2 hours, and then closing the lid. Salt stress application was carried out by dispensing a mixture of MS medium (containing 1% sucrose, 0.1% agar, and 1 mM luciferin) with 250 mM NaCl to the roots of the plant bodies (200 μl per plant body) using a Pipetman. ABA stress application was carried out by dispensing a mixture of MS medium (containing 1% sucrose, 0.1% agar, and 1 mM luciferin) with 100 μM ABA to the roots of the plant bodies (200 μl per plant body) using a Pipetman.
Luciferase luminescence was assayed 2, 5, and 10 hours after the above various types of environmental stresses had been applied using the ARGUS system (Hamamatsu Photonics). […]

Molecule	Environmental stress type to which the promoter responds [1]	Tissue in which specific induction of expression is realized ([2]; Dehydration stress)	time after stress application at which activity to induce gene expression is exhibited ([2]; Dehydration stress)	Tissue in which specific induction of expression is realized ([2]; Dehydration stress, listed as promoter of RAFL06-16-J10)	time after stress application at which activity to induce gene expression is lowered ([2]; dehydration stress, stem and leaf tissue)	Tissue allowing specific induction [2]	Tissue in which specific induction of expression is realized ([2]; ABA stress (100 μM ABA))	Tissue in which specific induction of expression is realized ([2]; ABA stress (100 μM ABA), listed as promoter of RAFL06-07-B19)	Tissue in which specific induction of expression is realized ([2]; Dehydration stress, listed as promoter of RAFL06-07-B19)	tissue in which expression is induced ([2]; dehydration stress applied for 5 hours)	tissue in which expression is induced ([2]; dehydration stress applied for 10 hours)	tissue in which expression is induced ([2]; dehydration stress applied for 10 hours, listed as promoter of RAFL06-07-B19)
B1	Dehydration and salt	Stem and leaf tissue	about 2 hours	stem and leaf tissue	about 10 hours	Stem and leaf tissue						
B2	Dehydration, salt,	Stem and leaf tissue and root tissue*^1				Stem and leaf tissue and root tissue	Root tissue	root tissue	stem and leaf tissue and root tissue	stem and leaf tissue and root tissue	leaf tissue and root tissue	lowered activity to induce gene expression in stem tissue and root tissue but to induce gene expression in leaf tissue

— patent publication US20090282582A1, “ENVIRONMENTAL STRESS RESPONSIVE PROMOTER AND METHOD OF TISSUE-SPECIFIC GENE EXPRESSION USING THE SAME” (RIKEN, priority 2006, published 2009)
